Our source for the ratio to parent values is paper PMC6156764.

The test concerns the target endogenous TEA domain protein (TEAD), detected with a pan-TEAD antibody, P28347. As to the kind of experiment: co-immunoprecipitation (α-Flag) with western blot quantification. The settings on record: chain shown with the change; lysates of transiently transfected HeLa cells; n = 3; parent: est. 1.0; read off a plot. For orientation: In western blotting, separated proteins are transferred to a membrane and probed.

endogenous TEA domain protein (TEAD), detected with a pan-TEAD antibody, P28347, sequence (P28347 whole entry, the tested form may be a part): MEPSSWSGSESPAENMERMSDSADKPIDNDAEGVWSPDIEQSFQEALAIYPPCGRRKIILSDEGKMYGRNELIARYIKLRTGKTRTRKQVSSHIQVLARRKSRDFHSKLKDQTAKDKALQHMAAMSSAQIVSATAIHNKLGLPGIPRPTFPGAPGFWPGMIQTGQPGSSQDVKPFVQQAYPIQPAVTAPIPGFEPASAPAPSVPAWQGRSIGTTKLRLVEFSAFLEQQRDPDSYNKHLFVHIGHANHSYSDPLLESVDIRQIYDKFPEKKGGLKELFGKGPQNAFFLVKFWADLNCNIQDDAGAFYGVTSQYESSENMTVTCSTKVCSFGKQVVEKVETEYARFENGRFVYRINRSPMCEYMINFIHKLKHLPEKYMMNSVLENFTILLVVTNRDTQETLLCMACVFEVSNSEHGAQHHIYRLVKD

B1: Flag-tagged wild-type GBP-1 fragment α7–13 (residues 311–582), P32455 S404A; D405A; R406A; C407A; S408A; L410A (protein)
chain: CMENAVLALAQIENSAAVQKAIAHYEQQMGQKVQLPTETLQELLDLHRDSEREAIEVFIRSSFKDVDHLFQKELAAQLEKKRDDFCKQNQEASAAAAAAALQVIFSPLEEEVKAGIYSKPGGYRLFVQKLQDLKKKYYEEPRKGIQAEEILQTYLKSKESMTDAILQTDQTLTEKEKEIEVERVKAESAQASAKMLQEMQRKNEQMMEQKERSYQEHLKQLTEKMENDRVQLLKEQERTLALKLQEQEQLLKEGFQKESRIMKNEIQDLQTK
For B1, the ratio to parent was found to be 1.1.

B2: Flag-tagged wild-type GBP-1 fragment α7–13 (residues 311–582), P32455 E383A; L384A; Q387A; L388A; E389A (protein)
chain: CMENAVLALAQIENSAAVQKAIAHYEQQMGQKVQLPTETLQELLDLHRDSEREAIEVFIRSSFKDVDHLFQKAAAAAAAKKRDDFCKQNQEASSDRCSALLQVIFSPLEEEVKAGIYSKPGGYRLFVQKLQDLKKKYYEEPRKGIQAEEILQTYLKSKESMTDAILQTDQTLTEKEKEIEVERVKAESAQASAKMLQEMQRKNEQMMEQKERSYQEHLKQLTEKMENDRVQLLKEQERTLALKLQEQEQLLKEGFQKESRIMKNEIQDLQTK
For the molecule B2, the ratio to parent was determined as 1.6.

B3: Flag-tagged wild-type GBP-1 fragment α7–13 (residues 311–582), P32455 K397A; Q398A; N399A; Q400A; E401A; S403A (protein)
chain: CMENAVLALAQIENSAAVQKAIAHYEQQMGQKVQLPTETLQELLDLHRDSEREAIEVFIRSSFKDVDHLFQKELAAQLEKKRDDFCAAAAAAASDRCSALLQVIFSPLEEEVKAGIYSKPGGYRLFVQKLQDLKKKYYEEPRKGIQAEEILQTYLKSKESMTDAILQTDQTLTEKEKEIEVERVKAESAQASAKMLQEMQRKNEQMMEQKERSYQEHLKQLTEKMENDRVQLLKEQERTLALKLQEQEQLLKEGFQKESRIMKNEIQDLQTK
Consider B3, for which the ratio to parent came to 1.7.

B4: Flag-tagged wild-type GBP-1 fragment α7–13 (residues 311–582), P32455 L418A; E419A; E420A; E421A; V422A; K423A (protein)
chain: CMENAVLALAQIENSAAVQKAIAHYEQQMGQKVQLPTETLQELLDLHRDSEREAIEVFIRSSFKDVDHLFQKELAAQLEKKRDDFCKQNQEASSDRCSALLQVIFSPAAAAAAAGIYSKPGGYRLFVQKLQDLKKKYYEEPRKGIQAEEILQTYLKSKESMTDAILQTDQTLTEKEKEIEVERVKAESAQASAKMLQEMQRKNEQMMEQKERSYQEHLKQLTEKMENDRVQLLKEQERTLALKLQEQEQLLKEGFQKESRIMKNEIQDLQTK
Take B4: the ratio to parent was found to be 0.95.

B5: Flag-tagged wild-type GBP-1 fragment α7–13 (residues 311–582), P32455 V376A; D377A; H378A; L379A; F380A; Q381A; K382A (protein)
chain: CMENAVLALAQIENSAAVQKAIAHYEQQMGQKVQLPTETLQELLDLHRDSEREAIEVFIRSSFKDAAAAAAAELAAQLEKKRDDFCKQNQEASSDRCSALLQVIFSPLEEEVKAGIYSKPGGYRLFVQKLQDLKKKYYEEPRKGIQAEEILQTYLKSKESMTDAILQTDQTLTEKEKEIEVERVKAESAQASAKMLQEMQRKNEQMMEQKERSYQEHLKQLTEKMENDRVQLLKEQERTLALKLQEQEQLLKEGFQKESRIMKNEIQDLQTK
Take B5: the ratio to parent came to 0.37.

B6: Flag-tagged wild-type GBP-1 fragment α7–13 (residues 311–582), P32455 L411A; Q412A; V413A; I414A; F415A; S416A; P417A (protein)
chain: CMENAVLALAQIENSAAVQKAIAHYEQQMGQKVQLPTETLQELLDLHRDSEREAIEVFIRSSFKDVDHLFQKELAAQLEKKRDDFCKQNQEASSDRCSALAAAAAAALEEEVKAGIYSKPGGYRLFVQKLQDLKKKYYEEPRKGIQAEEILQTYLKSKESMTDAILQTDQTLTEKEKEIEVERVKAESAQASAKMLQEMQRKNEQMMEQKERSYQEHLKQLTEKMENDRVQLLKEQERTLALKLQEQEQLLKEGFQKESRIMKNEIQDLQTK
For the molecule B6, the ratio to parent came to 1.2.

B7: Flag-tagged wild-type GBP-1 fragment α7–13 (residues 311–582), P32455 K390A; K391A; R392A; D393A; D394A; F395A; C396A (protein)
chain: CMENAVLALAQIENSAAVQKAIAHYEQQMGQKVQLPTETLQELLDLHRDSEREAIEVFIRSSFKDVDHLFQKELAAQLEAAAAAAAKQNQEASSDRCSALLQVIFSPLEEEVKAGIYSKPGGYRLFVQKLQDLKKKYYEEPRKGIQAEEILQTYLKSKESMTDAILQTDQTLTEKEKEIEVERVKAESAQASAKMLQEMQRKNEQMMEQKERSYQEHLKQLTEKMENDRVQLLKEQERTLALKLQEQEQLLKEGFQKESRIMKNEIQDLQTK
As for B7, the ratio to parent worked out at 1.6.
